Experimental data taken from US20100203559A1 (published 2010).
Substitutions are numbered along the chain they refer to.

B1: α-SNAP-25 monoclonal antibody 2E2A6 (antibody, V domains shown)
VH: QVQLQQSDAELVKPGASVKISCRASGYTFTDHSIHWVKQQPGQGLEWIGYIFPGNGNIEYNDKFKGKATLTADKSSGTAYMQLNSLTSEDSAVYFCKRMGYWGQGTSVTVSS
VL: DVLMTQTPLTLSVTIGQPASISCKSSQSLLYTNGKTYLTWLFQRPGQSPKRLIYLVSELDSGVPDRFSGSGSGTDFTLEITRVEAEDLGVYYCLQSAHFPFTFGSGTKLEIKR
B2: α-SNAP-25 monoclonal antibody 3C1A5 (antibody, V domains shown)
VH: QVKLQESGAELVKPGASVKISCKASGYTFTDHSIHWVKQKPGQGLEWIGYLFPGNGNFEYNEKFKGKATLTADKSSSTVYMYLNSLTSEDSAVYFCKRMGYWGQGTTVTVSS
VL: B1 VL with L3V, Y31N, F42I, K50Q, E58K, E79K, T81S, A97S
B3: α-SNAP-25 monoclonal antibody 1D3B8 (antibody, V domains shown)
VH: QVKLQESGAELVKPGASVKISCKASGYIFTDHALHWVRQKPEQGLEWIGYIFPGNGNIEYNEKFKGKATLTADKSSSTAYMQLNSLTSGDSAMYFCKKMDYWGQGTTVTVSS
VL: DVLMTQTPLSLPVSLGDQASISCRSSQSIVHSNGNTYLEWYLQKPGQSPKLLIYKVSNRFSGVPDRFSGSGSGTDFTLKISRVEAEDLGVYYCFQGSHVPPTFGAGTKLELKR

Molecular target: T1, SNAP-25206 uncleaved substrate (PC12 cells) (rat (PC12 cells), UniProt P60881 1-206)
T1 construct: also called uncleaved SNAP-25206 substrate; uncleaved SNAP-25
T1 sequence (P60881 whole entry): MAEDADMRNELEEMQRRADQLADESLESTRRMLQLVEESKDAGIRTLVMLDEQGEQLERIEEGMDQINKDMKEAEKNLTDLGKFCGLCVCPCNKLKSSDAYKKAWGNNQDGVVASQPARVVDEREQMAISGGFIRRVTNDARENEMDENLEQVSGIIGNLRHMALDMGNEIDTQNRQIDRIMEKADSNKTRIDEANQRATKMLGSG
Assay: cell-based activity assay (Western blot, PC12 cells), ascites 1:100

Row | Binder | binding result
1 | B1 | no binding
2 | B2 | no binding
3 | B3 | no binding
